Ends that are not written are not given here.
Assays:
[1] = target: T1, Human-TrKB (Homo sapiens, UniProt Q16620); assay: ELISA binding of serum of peptide-immunised mice to Human-TrKB (Example 18); conditions: serum dilutions 1:50 to 1:6400; blank serum as control
T1 construct: purchased Sino Biological 10047-H08H

[2] = target: T2, Human-TrKC (Homo sapiens, UniProt Q16288); assay: ELISA binding of serum of peptide-immunised mice to Human-TrKC (Example 18); conditions: serum dilutions 1:50 to 1:6400; blank serum as control
T2 construct: purchased Sino Biological 10048-H08H
T2 sequence (Q16288 32-429 limits assumed): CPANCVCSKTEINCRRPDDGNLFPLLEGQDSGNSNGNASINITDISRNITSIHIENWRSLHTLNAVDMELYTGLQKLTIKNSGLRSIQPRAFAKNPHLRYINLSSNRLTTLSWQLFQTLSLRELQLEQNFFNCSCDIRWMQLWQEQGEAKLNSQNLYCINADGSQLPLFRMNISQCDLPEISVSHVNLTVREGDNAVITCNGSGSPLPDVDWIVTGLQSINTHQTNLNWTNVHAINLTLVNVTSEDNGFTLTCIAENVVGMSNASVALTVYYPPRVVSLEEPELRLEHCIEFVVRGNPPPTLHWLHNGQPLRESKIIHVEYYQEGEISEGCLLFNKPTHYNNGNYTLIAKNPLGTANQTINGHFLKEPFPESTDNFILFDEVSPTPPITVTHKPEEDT

[3] = target: T3, Human-P75 (Homo sapiens, UniProt P08138); assay: ELISA binding of serum of peptide-immunised mice to Human-P75 (Example 18); conditions: serum dilutions 1:50 to 1:6400; blank serum as control
T3 construct: purchased Sino Biological 13184-H08H
T3 sequence (P08138 29-250 limits assumed): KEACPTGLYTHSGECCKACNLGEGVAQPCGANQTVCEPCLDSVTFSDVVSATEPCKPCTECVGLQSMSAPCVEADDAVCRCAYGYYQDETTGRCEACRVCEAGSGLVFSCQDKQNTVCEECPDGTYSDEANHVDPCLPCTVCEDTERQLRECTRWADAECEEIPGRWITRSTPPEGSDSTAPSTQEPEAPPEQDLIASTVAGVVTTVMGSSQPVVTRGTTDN

[4] = target: binding of Human-TrKA receptor and its ligand Human-NGF (Human-TrKA受体与其配体Human-NGF结合) (Homo sapiens, UniProt P04629); assay: ELISA blocking of Human-TrKA/Human-NGF binding by serum of peptide-immunised rabbits (Example 19); conditions: 300 μg each time
binding of Human-TrKA receptor and its ligand Human-NGF (Human-TrKA受体与其配体Human-NGF结合), sequence (P04629 33-796): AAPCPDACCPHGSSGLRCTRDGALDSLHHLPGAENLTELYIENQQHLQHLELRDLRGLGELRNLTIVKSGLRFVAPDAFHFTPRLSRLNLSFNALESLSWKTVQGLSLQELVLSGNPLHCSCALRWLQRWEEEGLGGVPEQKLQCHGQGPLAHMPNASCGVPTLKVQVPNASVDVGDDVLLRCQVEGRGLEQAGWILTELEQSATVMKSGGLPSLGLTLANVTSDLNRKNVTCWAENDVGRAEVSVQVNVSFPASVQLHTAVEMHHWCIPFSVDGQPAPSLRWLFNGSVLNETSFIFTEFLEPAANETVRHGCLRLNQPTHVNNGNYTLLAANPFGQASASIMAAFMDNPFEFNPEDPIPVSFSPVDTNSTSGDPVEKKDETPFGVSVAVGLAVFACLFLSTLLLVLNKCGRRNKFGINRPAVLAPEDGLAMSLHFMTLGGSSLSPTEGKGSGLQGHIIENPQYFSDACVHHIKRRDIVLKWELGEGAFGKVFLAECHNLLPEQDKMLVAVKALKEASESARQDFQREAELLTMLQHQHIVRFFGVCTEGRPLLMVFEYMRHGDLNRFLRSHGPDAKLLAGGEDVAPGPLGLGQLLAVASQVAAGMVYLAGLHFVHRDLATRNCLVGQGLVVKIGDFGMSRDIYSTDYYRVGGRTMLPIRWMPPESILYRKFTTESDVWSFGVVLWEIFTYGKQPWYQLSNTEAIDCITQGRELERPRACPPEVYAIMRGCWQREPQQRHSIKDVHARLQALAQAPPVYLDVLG

T1 sequence (Q16620 32-430 limits assumed): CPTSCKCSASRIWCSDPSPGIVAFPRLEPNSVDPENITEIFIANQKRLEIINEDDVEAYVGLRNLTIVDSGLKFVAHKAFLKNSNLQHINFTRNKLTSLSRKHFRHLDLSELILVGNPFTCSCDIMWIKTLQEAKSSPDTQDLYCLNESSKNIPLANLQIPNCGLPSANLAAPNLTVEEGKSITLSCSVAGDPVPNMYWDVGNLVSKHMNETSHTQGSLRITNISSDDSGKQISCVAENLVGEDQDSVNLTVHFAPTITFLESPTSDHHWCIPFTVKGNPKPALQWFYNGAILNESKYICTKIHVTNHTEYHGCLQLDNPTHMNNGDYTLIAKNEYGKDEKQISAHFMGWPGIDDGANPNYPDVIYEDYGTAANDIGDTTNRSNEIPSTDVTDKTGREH

MAAFMDNPFEFNPED-C-KLH: 多肽MAAFMDNPFEFNPED-C-KLH (SEQ ID NO:18; 钥孔血蓝蛋白(KLH)) (not fully specified (C-terminus); also: KLH carrier conjugated via C-terminal Cys)
binding of immunised mouse serum [1]: 没有明显结合
binding of immunised mouse serum [2]: 没有明显结合
binding of immunised mouse serum [3]: 没有明显结合
Human-TrkA/Human-NGF binding signal (OD450) versus blank serum ([4]; immunised rabbit serum diluted 1:2): 显著性降低
Human-TrkA/Human-NGF binding signal (OD450) versus blank serum ([4]; immunised rabbit serum, no dilution stated): 显著性降低

— patent CN116926038A, “一种TrkA的抗原表位肽及其应用” (Guangdong HEC Pharmaceutical Co Ltd, priority 2022, dated 2023)
